Measured values as given in patent US20260265379A1 (IMCHECK THERAPEUTICS, published 2026).

Assays:
[1] = biological target: T1, BTN3A1 at the surface of HEK-BTN3A1 cells (human, UniProt O00481 30-513); experiment: flow cytometry, HEK-BTN3A1 cells
T1 construct: HEK 293T BTN2A/BTN3A KO cells transduced with a BTN3A1 expressing vector

[2] = biological target: T2, PD-L1 at the surface of transduced cells (UniProt Q9NZQ7 19-290, limits assumed); experiment: flow cytometry, CHO-PD-L1 cells
T2 construct: whole, on cells; CHO-PD-L1 cells in flow cytometry, Raji-PD-L1 cells in the reporter assay; also called CHO-PD-L1; Raji-PD-L1

recombinant human PD-L1 = biological target: T3, recombinant human PD-L1 (human, UniProt Q9NZQ7 19-239, limits assumed); experiment: SPR
T3 construct: Soluble antigen in SPR; also called rhPD-L1

recombinant human BTN3A1 = biological target: T4, recombinant human BTN3A1 (human, UniProt O00481 30-254); experiment: SPR
T4 construct: Soluble form of the antigen used in SPR; also called rhBTN3A1; recombinant BTN3A1 protein
T4 sequence (O00481 30-254 limits assumed): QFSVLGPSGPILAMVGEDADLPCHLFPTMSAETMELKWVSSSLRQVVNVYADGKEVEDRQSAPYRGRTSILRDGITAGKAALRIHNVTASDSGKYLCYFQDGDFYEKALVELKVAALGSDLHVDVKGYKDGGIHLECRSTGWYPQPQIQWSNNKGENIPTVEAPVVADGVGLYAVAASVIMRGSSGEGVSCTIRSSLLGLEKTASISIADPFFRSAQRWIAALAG

T3 sequence (Q9NZQ7 19-239 limits assumed): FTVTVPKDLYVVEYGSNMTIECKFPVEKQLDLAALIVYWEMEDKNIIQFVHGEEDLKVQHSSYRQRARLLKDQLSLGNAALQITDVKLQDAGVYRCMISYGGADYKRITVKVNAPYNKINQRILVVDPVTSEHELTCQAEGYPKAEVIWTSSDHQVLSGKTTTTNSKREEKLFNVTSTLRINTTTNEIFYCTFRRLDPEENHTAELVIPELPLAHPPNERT
T2 sequence (Q9NZQ7 19-290 limits assumed): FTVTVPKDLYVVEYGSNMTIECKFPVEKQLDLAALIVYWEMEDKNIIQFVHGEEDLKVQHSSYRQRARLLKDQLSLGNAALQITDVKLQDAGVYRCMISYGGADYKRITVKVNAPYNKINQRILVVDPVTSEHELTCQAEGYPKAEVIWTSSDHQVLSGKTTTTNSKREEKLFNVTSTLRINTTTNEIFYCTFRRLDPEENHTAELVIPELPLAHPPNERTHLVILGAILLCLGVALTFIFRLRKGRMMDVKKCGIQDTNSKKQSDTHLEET
T1 sequence (O00481 30-513 limits assumed): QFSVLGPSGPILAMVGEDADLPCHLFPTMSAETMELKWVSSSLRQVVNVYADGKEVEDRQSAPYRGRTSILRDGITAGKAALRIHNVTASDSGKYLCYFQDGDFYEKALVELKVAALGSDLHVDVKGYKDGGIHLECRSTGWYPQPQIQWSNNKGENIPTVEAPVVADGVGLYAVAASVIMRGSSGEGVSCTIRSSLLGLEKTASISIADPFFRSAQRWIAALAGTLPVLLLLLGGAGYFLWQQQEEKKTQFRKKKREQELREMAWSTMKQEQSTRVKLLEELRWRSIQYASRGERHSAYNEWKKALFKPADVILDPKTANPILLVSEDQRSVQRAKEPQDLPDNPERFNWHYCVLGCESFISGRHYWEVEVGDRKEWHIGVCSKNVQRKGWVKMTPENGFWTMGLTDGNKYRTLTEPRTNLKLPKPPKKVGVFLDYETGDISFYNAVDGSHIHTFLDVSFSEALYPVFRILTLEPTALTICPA

MFI at 10 nM [1] [MFI] | MFI at 100 nM [1] [MFI] | MFI at 10 nM [2] [MFI] | MFI at 100 nM [2] [MFI] | Kd (recombinant human PD-L1) [nM] | Kd (recombinant human BTN3A1) [nM] | Binder
340000 | 792000 | 578000 | 597000 | 0.033 | 0.095 | bsAb051 (bispecific antibody, one Fab arm anti-BTN3A, two scFv anti-PD-L1; not shown: IgG1 CH1-hinge-CH2-CH3; CH2-CH3 (Fc)) heavy (part 1 of 2): QVQLVQSGAEVKKPGASVKLSCKASGYIFTRYYMYWVKQRPGQGLEWIGEINPNNGGTKFNEKFKNRATLTVDKSISTAYMELSRLRSDDTAVYYCSREDDYDGTPFAMDYWGQGTLVTVSS heavy (part 2 of 2): GGGGSGGGGSGGGGSGGGGSEVQLVESGGGLVQPGGSLRLSCAASGFTFSRYWMSWVRQAPGKGLEWVANIKQDGSEKYYVDSVKGRFTISRDNAKNSLYLQMNSLRAEDTAVYYCAREGGWFGELAFDYWGQGTLVTVSSGGGGSGGGGSGGGGSGGGGSEIVLTQSPGTLSLSPGERATLSCRASQRVSSSYLAWYQQKPGQAPRLLIYDASSRATGIPDRFSGSGSGTDFTLTISRLEPEDFAVYYCQQYGSLPWTFGQGTKVEIK heavy: GGGGSGGGGSGGGGSGGGGSEVQLVESGGGLVQPGGSLRLSCAASGFTFSRYWMSWVRQAPGKGLEWVANIKQDGSEKYYVDSVKGRFTISRDNAKNSLYLQMNSLRAEDTAVYYCAREGGWFGELAFDYWGQGTLVTVSSGGGGSGGGGSGGGGSGGGGSEIVLTQSPGTLSLSPGERATLSCRASQRVSSSYLAWYQQKPGQAPRLLIYDASSRATGIPDRFSGSGSGTDFTLTISRLEPEDFAVYYCQQYGSLPWTFGQGTKVEIK light: not shown
997000 | 1.5e+06 | 746000 | 784000 | 0.073 | 0.114 | bsAb020 (bispecific antibody, IgG anti-PD-L1, scFv anti-BTN3A) heavy: DIQMTQSPSSLSASVGDRVTITCHASQNINVWLSWYQQKPGKAPKLLIYKASNLHTGVPSRFTGSGSGTDFTFTISSLQPEDIATYYCQQGQTYPYTFGQGTKLEIKGGGGSGGGGSGGGGSGGGGSQVQLVQSGAEVKKPGASVKLSCKASGYIFTRYYMYWVKQRPGQGLEWIGEINPNNGGTKFNEKFKNRATLTVDKSISTAYMELSRLRSDDTAVYYCSREDDYDGTPFAMDYWGQGTLVTVSSGGGGSGGGGSGGGGSGGGGSEVQLVESGGGLVQPGGSLRLSCAASGFTFSRYWMSWVRQAPGKGLEWVANIKQDGSEKYYVDSVKGRFTISRDNAKNSLYLQMNSLRAEDTAVYYCAREGGWFGELAFDYWGQGTLVTVSSASTKGPSVFPLAPSSKSTSGGTAALGCLVKDYFPEPVTVSWNSGALTSGVHTFPAVLQSSGLYSLSSVVTVPSSSLGTQTYICNVNHKPSNTKVDKRVEPKSCDKTHTCPPCPAPEFEGGPSVFLFPPKPKDTLMISRTPEVTCVVVDVSHEDPEVKFNWYVDGVEVHNAKTKPREEQYNSTYRVVSVLTVLHQDWLNGKEYKCKVSNKALPASIEKTISKAKGQPREPQVYTLPPSREEMTKNQVSLTCLVKGFYPSDIAVEWESNGQPENNYKTTPPVLDSDGSFFLYSKLTVDKSRWQQGNVFSCSVMHEALHNHYTQKSLSLSPG light: EIVLTQSPGTLSLSPGERATLSCRASQRVSSSYLAWYQQKPGQAPRLLIYDASSRATGIPDRFSGSGSGTDFTLTISRLEPEDFAVYYCQQYGSLPWTFGQGTKVEIKRTVAAPSVFIFPPSDEQLKSGTASVVCLLNNFYPREAKVQWKVDNALQSGNSQESVTEQDSKDSTYSLSSTLTLSKADYEKHKVYACEVTHQGLSSPVTKSFNRGEC
1.1e+06 | 1.67e+06 | 1.14e+06 | 1.3e+06 | 0.053 | 0.101 | bsAb041 (bispecific antibody, one Fab arm anti-PD-L1, two scFv anti-BTN3A; not shown: IgG1 CH1-hinge-CH2-CH3; CH2-CH3 (Fc)) heavy (part 1 of 2): EVQLVESGGGLVQPGGSLRLSCAASGFTFSRYWMSWVRQAPGKGLEWVANIKQDGSEKYYVDSVKGRFTISRDNAKNSLYLQMNSLRAEDTAVYYCAREGGWFGELAFDYWGQGTLVTVSS heavy (part 2 of 2): GGGGSGGGGSGGGGSGGGGSDIQMTQSPSSLSASVGDRVTITCHASQNINVWLSWYQQKPGKAPKLLIYKASNLHTGVPSRFTGSGSGTDFTFTISSLQPEDIATYYCQQGQTYPYTFGQGTKLEIKGGGGSGGGGSGGGGSGGGGSQVQLVQSGAEVKKPGASVKLSCKASGYIFTRYYMYWVKQRPGQGLEWIGEINPNNGGTKFNEKFKNRATLTVDKSISTAYMELSRLRSDDTAVYYCSREDDYDGTPFAMDYWGQGTLVTVSS heavy: GGGGSGGGGSGGGGSGGGGSDIQMTQSPSSLSASVGDRVTITCHASQNINVWLSWYQQKPGKAPKLLIYKASNLHTGVPSRFTGSGSGTDFTFTISSLQPEDIATYYCQQGQTYPYTFGQGTKLEIKGGGGSGGGGSGGGGSGGGGSQVQLVQSGAEVKKPGASVKLSCKASGYIFTRYYMYWVKQRPGQGLEWIGEINPNNGGTKFNEKFKNRATLTVDKSISTAYMELSRLRSDDTAVYYCSREDDYDGTPFAMDYWGQGTLVTVSS light: EIVLTQSPGTLSLSPGERATLSCRASQRVSSSYLAWYQQKPGQAPRLLIYDASSRATGIPDRFSGSGSGTDFTLTISRLEPEDFAVYYCQQYGSLPWTFGQGTKVEIKRTVAAPSVFIFPPSDEQLKSGTASVVCLLNNFYPREAKVQWKVDNALQSGNSQESVTEQDSKDSTYSLSSTLTLSKADYEKHKVYACEVTHQGLSSPVTKSFNRGEC
424000 | 1.06e+06 | 664000 | 690000 | 0.033 | 0.126 | bsAb054 (bispecific antibody, IgG anti-PD-L1, one scFv anti-BTN3A; not shown: IgG1 CH1-hinge-CH2-CH3) heavy (part 1 of 2): EVQLVESGGGLVQPGGSLRLSCAASGFTFSRYWMSWVRQAPGKGLEWVANIKQDGSEKYYVDSVKGRFTISRDNAKNSLYLQMNSLRAEDTAVYYCAREGGWFGELAFDYWGQGTLVTVSS heavy (part 2 of 2): GGGGSGGGGSGGGGSGGGGSQVQLVQSGAEVKKPGASVKLSCKASGYIFTRYYMYWVKQRPGQGLEWIGEINPNNGGTKFNEKFKNRATLTVDKSISTAYMELSRLRSDDTAVYYCSREDDYDGTPFAMDYWGQGTLVTVSSGGGGSGGGGSGGGGSGGGGSDIQMTQSPSSLSASVGDRVTITCHASQNINVWLSWYQQKPGKAPKLLIYKASNLHTGVPSRFTGSGSGTDFTFTISSLQPEDIATYYCQQGQTYPYTFGQGTKLEIK heavy: EVQLVESGGGLVQPGGSLRLSCAASGFTFSRYWMSWVRQAPGKGLEWVANIKQDGSEKYYVDSVKGRFTISRDNAKNSLYLQMNSLRAEDTAVYYCAREGGWFGELAFDYWGQGTLVTVSS light: EIVLTQSPGTLSLSPGERATLSCRASQRVSSSYLAWYQQKPGQAPRLLIYDASSRATGIPDRFSGSGSGTDFTLTISRLEPEDFAVYYCQQYGSLPWTFGQGTKVEIKRTVAAPSVFIFPPSDEQLKSGTASVVCLLNNFYPREAKVQWKVDNALQSGNSQESVTEQDSKDSTYSLSSTLTLSKADYEKHKVYACEVTHQGLSSPVTKSFNRGEC
– | 1.66e+06 | 762000 | 794000 | 0.065 | 0.073 | bsAb024 (bispecific antibody, IgG anti-PD-L1, scFv anti-BTN3A) heavy: QVQLVQSGAEVKKPGASVKLSCKASGYIFTRYYMYWVKQRPGQGLEWIGEINPNNGGTKFNEKFKNRATLTVDKSISTAYMELSRLRSDDTAVYYCSREDDYDGTPFAMDYWGQGTLVTVSSGGGGSGGGGSGGGGSGGGGSDIQMTQSPSSLSASVGDRVTITCHASQNINVWLSWYQQKPGKAPKLLIYKASNLHTGVPSRFTGSGSGTDFTFTISSLQPEDIATYYCQQGQTYPYTFGQGTKLEIKGGGGSGGGGSGGGGSGGGGSEVQLVESGGGLVQPGGSLRLSCAASGFTFSRYWMSWVRQAPGKGLEWVANIKQDGSEKYYVDSVKGRFTISRDNAKNSLYLQMNSLRAEDTAVYYCAREGGWFGELAFDYWGQGTLVTVSSASTKGPSVFPLAPSSKSTSGGTAALGCLVKDYFPEPVTVSWNSGALTSGVHTFPAVLQSSGLYSLSSVVTVPSSSLGTQTYICNVNHKPSNTKVDKRVEPKSCDKTHTCPPCPAPEFEGGPSVFLFPPKPKDTLMISRTPEVTCVVVDVSHEDPEVKFNWYVDGVEVHNAKTKPREEQYNSTYRVVSVLTVLHQDWLNGKEYKCKVSNKALPASIEKTISKAKGQPREPQVYTLPPSREEMTKNQVSLTCLVKGFYPSDIAVEWESNGQPENNYKTTPPVLDSDGSFFLYSKLTVDKSRWQQGNVFSCSVMHEALHNHYTQKSLSLSPG light: EIVLTQSPGTLSLSPGERATLSCRASQRVSSSYLAWYQQKPGQAPRLLIYDASSRATGIPDRFSGSGSGTDFTLTISRLEPEDFAVYYCQQYGSLPWTFGQGTKVEIKRTVAAPSVFIFPPSDEQLKSGTASVVCLLNNFYPREAKVQWKVDNALQSGNSQESVTEQDSKDSTYSLSSTLTLSKADYEKHKVYACEVTHQGLSSPVTKSFNRGEC
682000 | 1.22e+06 | 1.03e+06 | 1.24e+06 | 0.055 | 0.457 | bsAb036 (bispecific antibody, one Fab arm anti-PD-L1, two scFv anti-BTN3A; not shown: IgG1 CH1-hinge-CH2-CH3; CH2-CH3 (Fc)) heavy (part 1 of 2): EVQLVESGGGLVQPGGSLRLSCAASGFTFSRYWMSWVRQAPGKGLEWVANIKQDGSEKYYVDSVKGRFTISRDNAKNSLYLQMNSLRAEDTAVYYCAREGGWFGELAFDYWGQGTLVTVSS heavy (part 2 of 2): GGGGSGGGGSGGGGSGGGGSQVQLVQSGAEVKKPGASVKLSCKASGYIFTRYYMYWVKQRPGQGLEWIGEINPNNGGTKFNEKFKNRATLTVDKSISTAYMELSRLRSDDTAVYYCSREDDYDGTPFAMDYWGQGTLVTVSSGGGGSGGGGSGGGGSGGGGSDIQMTQSPSSLSASVGDRVTITCHASQNINVWLSWYQQKPGKAPKLLIYKASNLHTGVPSRFTGSGSGTDFTFTISSLQPEDIATYYCQQGQTYPYTFGQGTKLEIK heavy: GGGGSGGGGSGGGGSGGGGSQVQLVQSGAEVKKPGASVKLSCKASGYIFTRYYMYWVKQRPGQGLEWIGEINPNNGGTKFNEKFKNRATLTVDKSISTAYMELSRLRSDDTAVYYCSREDDYDGTPFAMDYWGQGTLVTVSSGGGGSGGGGSGGGGSGGGGSDIQMTQSPSSLSASVGDRVTITCHASQNINVWLSWYQQKPGKAPKLLIYKASNLHTGVPSRFTGSGSGTDFTFTISSLQPEDIATYYCQQGQTYPYTFGQGTKLEIK light: EIVLTQSPGTLSLSPGERATLSCRASQRVSSSYLAWYQQKPGQAPRLLIYDASSRATGIPDRFSGSGSGTDFTLTISRLEPEDFAVYYCQQYGSLPWTFGQGTKVEIKRTVAAPSVFIFPPSDEQLKSGTASVVCLLNNFYPREAKVQWKVDNALQSGNSQESVTEQDSKDSTYSLSSTLTLSKADYEKHKVYACEVTHQGLSSPVTKSFNRGEC
